Test system: Bacillus subtilis
Assay: cleaved RNA product abundance (RNA/gDNA barcode ratio) relative to median wild-type variant (ratio to wild type); higher = more accumulation of the downstream cleavage product
Description: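 MPRA in B. subtilis. Mutagenized RNase Y cleavage-site regions (9% mutation rate) were inserted into a barcoded reporter mRNA (truncated aprE or tetM). Cells were grown in LB at 37°C to OD600 0.3. The cleaved RNA isoform was gel-purified and its barcodes counted; the RNA:gDNA barcode ratio was normalised to the median wild-type variant, and the median over barcodes is reported per variant. The printed sequence is the variable window only; the reporter flanks are not printed.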

[1] = experiment (reporter, strain, medium): exp 4a: truncated aprE reporter, strain BJT201 with 2% xylose (RNase J1 expressed), cleavage site: cggR-gapA (positions -7 to +36 mutated)
[2] = experiment (reporter, strain, medium): exp 8a: truncated aprE reporter, strain BJT201 with 2% xylose (RNase J1 expressed), cleavage site: glnRA (positions -5 to +31 mutated)
[3] = experiment (reporter, strain, medium): exp 2b: truncated aprE reporter, strain BJT200, cleavage site: cggR-gapA (positions -7 to +36 mutated)

Sequence | cleaved RNA product abundance [1] | cleaved RNA product abundance [2] | cleaved RNA product abundance [3]
ACAGACGAAGGAGCCGCAAAGAAGTTATTAAGGGAGGAATAATCCCTCAAGATAAATATCTCTCACTTATTTAAA | 0.152 |  | 
ACAGACGAAGGAGCCGCAAAGAAGTTATTAAGAGATGAATAATCCCTCACTATAAATATCTCTCACTTATTTAAA | 0.131 |  | 
CGACATGTCCCGCTTCTTTCATTATTCCGTTAACAACTATTTTGCTATATACATTTACCTTTTAAGAGGAGGAAT |  | 0.283 | 
ACAGACGAAGGAGCCGCAAAGAAGTTATCAAGGGATGAATAATCCCTCAATATAAATGTCTCTCACTTATTTAAA | 0.206 |  | 0.192
ACAGACGAAGGAGCCGCAAAGAAGTTATTAAGGGATGAATAATCCATCAATATATATATCTCTCACTTATTTAAA | 0.191 |  | 0.19
ACAGACGAAGGAGCCGCAAAAGAAGTTATTAAGGGATGAATAATCCCTCAATATAAATATCTCTCACTTATTTAA | 1.06 |  | 
CGACATGTCCCGCTTCTTTCATTAATCCGTTAGCAACTGTTTTGCTATATAGATTTACCCTTTAAGAGGAGGAAT |  | 0.684 | 
ACAGACGAAGGAGCCGCAAAGAAGTTATTAAGGGATGAATAATCCATCAATATAAAAATCTCTCACTTATTTAAA | 0.145 |  | 
ACAGACGAAGGAGCCGCAAAGAAGTTATAAAGGGATGAATAATCCCTAAATATAAATATCTCTCACTTATTTAAA | 0.626 |  | 
ACAGACGAAGGAGCCGCAAAGAAGTTATTAAGGGATGAATAAGCCTTCAATATAAATATCTCTCACTTATTTAAA | 0.171 |  | 
ACAGACGAAGGAGCCGCAAAGAAGTTATTAATGGGTGAATAATCCCTCAATATAAATATCTCTCACTTATTTAAA | 0.188 |  | 
ACAGACGAAGGAGCCGCAAAGAAGTTATTAAGGCATGAATAATCCCTCGATATAAATATCTCTCACTTATTTAAA | 0.0814 |  | 
ACAGACGAAGGAGCCGCAAAGAAGTTATTAAGGGATGAAAAATCCCTAAATATAAATATCTCTCACTTATTTAAA | 0.445 |  | 0.499
ACAGACGAAGGAGCCGCAAAGAAATTATTAAGTGATGAATAATCCCTCAATATAAATATCTCTCACTTATTTAAA | 0.125 |  | 0.107
CGACATGTCCCGCTTCTTTCATTAACCCGTTAGCAACTGTTTTGCTATATACATTTACTTTTTAAGAGGAGGAAT |  | 1.04 | 
ACAGACGAAGGAGCCGCAAAGTCGTTATTAAGGGATGAATAATCCCTCAATATAAATATCTCTCACTTATTTAAA | 0.9 |  | 
CGACATGTCCCGCTTCTTTCATTAATCCGTTAGAAGCTGTTTTGCTATATACATTTACCTTTTAAGAGGAGGAAT |  | 0.23 | 
ACAGACGAAGGAGCCGCAAAGAAGGTATTAAGGGATGAATAATCCCTCAATATAACTATCTCTCACTTATTTAAA | 0.73 |  | 
ACAGACGAAGGAGCCGCAAAGAAGTTATTAAGGCATGAATAATCCCTCAATATAAATATCTCTCACTATTTAAAG | 0.146 |  | 
ACAGACGAAGGAGCCGCAAAGAAGTTATTAAGGGATGAATAATCCTCAATATAAATATCTCTCACTTATTTAAAG | 0.309 |  | 0.205
ACAGACGAAGGAGCCGCAAAGAAGTCATTAACGGATGAATAATCCCTCAATATAAATATCTCTCACTTATTTAAA | 0.128 |  | 
ACAGACGAAGGAGCCGCAAAGAAGTTATAAAGGGATGAATAATCCCTCAATATATATATCTCTCACTTATTTAAA | 0.58 |  | 0.359
ACAGACGAAGGAGCCGCAGAGAAGTTATTAAGGGATGAATAATCCCTCAATATAAATAACTCTCACTTATTTAAA | 0.451 |  | 0.518
ACAGACGAAGGAGCCGCAAAGAAGATATAAAGGGATGAATAATCCCTCAATATAAATATCTCTCACTTATTTAAA | 0.514 |  | 0.272
ACAGACGAAGGAGCCGCAAAGAGGTTATTAAGGTATGAATAATCCCTCAATATAAATATCTCTCACTTATTTAAA | 0.1 |  | 
ACAGACGAAGGAGCCGCAAAGAAGTTATTACGGGATGAATGATCCCTCAATATAAATATCTCTCACTTATTTAAA | 0.247 |  | 
ACAGACGAAGGAGCCGCAAAGAACTTATTAAGGGATGAATAATCCCTCAATATAAATAACTCTCACTTATTTAAA | 0.566 |  | 0.444

Sequence | cleaved RNA product abundance [1] | cleaved RNA product abundance [2] | cleaved RNA product abundance [3]
CGACATGTCCCGCTTCTTTCATTAATCCGTTAGCAACTGTTTTCCTATATACATTCACCTTTTAAGAGGAGGAAT |  | 0.346 | 
CGACATGTCCCGCTTCTTTCATTATTCCGTTAACAACTGTTTTGCTATATACATTTACCTTTTAAGAGGAGGAAT |  | 0.312 | 
ACAGACGAAGGAGCCGCAAATAAGTTATTAAGGGATGAATAATCCCTCAGTATAAATATCTCTCACTTATTTAAA | 0.303 |  | 
ACAGACGAAGGAGCCGCAAAGATGTTATTACGGGATGAATAATCCCTCAATATAAATATCTCTCACTTATTTAAA | 0.401 |  | 0.369
CGACATGTCCCGCTTCTTTCATTAATCTGTTAGCAACTGTTTTGCTATATCCATTTACCTTTTAAGAGGAGGAAT |  | 0.263 | 
ACAGACGAAGGAGCCGCAAAGAATTTATTAAGGGATGAATAATCCCTAAATATAAATATCTCTCACTTATTTAAA | 0.591 |  | 0.496
CGACATGTCCCGCTTCTTTCATTAATCCCTTAGCAACTATTTTGCTATATACATTTACCTTTTAAGAGGAGGAAT |  | 0.323 | 
ACAGACGAAGGAGCCGCAAAGAAGTTATTAAGGTATGAATTATCCCTCAATATAAATATCTCTCACTTATTTAAA |  |  | 0.15
ACAGACGAAGGAGCCGCAAAGAAGTTAATAAGGGATGAATAATCCCTCAATATAAATAGCTCTCACTTATTTAAA | 0.293 |  | 
CGACATGTCCCGCTTCTTTCATTAATCCGTTAACAACTGTTTTTCTATATACATATACCTTTTAAGAGGAGGAAT |  | 0.304 | 
CGACATGTCCCGCTTCTTTCATTACTCCGTTAGCAACTGTTTTGCTATATACATTTACGTTTTAAGAGGAGGAAT |  | 0.893 | 
CGACATGTCCCGCTTCTTTCATTAATCCGTTATCAACTGTTTTGCTATATACATTTACCTTTTAAGAGGAGGAAT |  | 0.298 | 
ACAGACGAAGGAGCCGCAAAGAAGTTATTAAGGGAAGTATAATCCCTCAATATAAATATCTCTCACTTATTTAAA |  |  | 0.599
ACAGACGAAGGAGCCGCAAAGAAGTTATTAAAGGATGAATAATCCCTGAATATAAATATCTCTCACTTATTTAAA | 0.171 |  | 0.133
ACAGACGAAGGAGCCGCAAATAAGTTATTAAGGTATGAATAAACCCTCAATATAAATATCTCTCACTTATTTAAA |  |  | 0.118
CGACATGTCCCGCTTCTTTCATTAATCCGTTAGCAACTGTTTTTCTATATACATTTAACTTTTAAGAGGAGGAAT |  | 0.675 | 
ACAGACGAAGGAGCCGCAAAGAATTTATTAAGGGATGAATAATCCCTCGATATAAATATCTCTCACTTATTTAAA | 0.422 |  | 
CGACATGTCCCGCTTCTTTCATTAATCCGTTAACACCTGTTTTGCTATATACATTTACCTTTTAAGAGGAGGAAT |  | 0.258 | 
ACAGACGAAGGAGCCGCAAAGAGGTTATTAATGGATGAATAATCCCTCAATATAAATATCTCTCACTTATTTAAA | 0.0978 |  | 0.13
ACAGACGAAGGAGCCGCATAGAAGTTATTAAGGGATGAATAATCCATCAATATAAATATCTCTCACTTATTTAAA | 0.245 |  | 0.112
ACAGACGAAGGAGCCGCAAAGAATTTATTAAGGGATGAATAATCCCTCAATAAAAATATCTCTCACTTATTTAAA | 0.066 |  | 
ACAGACGAAGGAGCCGCAAAAAAGTTATTAAGGGATGAATAAGCCCTCAATATAAATATCTCTCACTTATTTAAA | 0.793 |  | 0.639
ACAGACGAAGGAGCCGCAATGAAGTTATTAAGGGATGAATAATCTCTCAATATAAATATCTCTCACTTATTTAAA | 0.845 |  | 0.942
ACAGACGAAGGAGCCGCAAAAAAGTTATAAAGGGATGAATAATCCCTCAATATAAATATCTCTCACTTATTTAAA | 0.581 |  | 0.4
CGACATGTCCCGCTTCTTTCATTAATTCGTTAGCAACTGTTTTGCTATTTACATTTACCTTTTAAGAGGAGGAAT |  | 0.134 | 
CGACATGTCCCGCTTCTTTCATTAATCCGTTAGCAACTGTTCTGCTATATACATTTACCTTTTAAGAGGAGGAAT |  | 0.446 | 

Source: the supplement of paper PMC11780869
